Laboratory results reported in publication PMC13626732.

Tests used:
[1] = target: actin-related protein (Arp) 2/3 complex (UniProt P61160); experiment: SPR; Arpin variants and dual-tailed peptides against the Arp2/3 complex; who was immobilised was not shown; hArpin as the dimer-enriched population
[2] = target: GST-aCT (chimeric protein with Arpin's CT fused to the C-terminus of glutathione S-transferase); experiment: SEC; recombinant GST-aCT

Row | Kd [1] | stoichiometry N [2] | Substance
1 | 17.8 µM | – | ArpinCT (residues 192–226) (from UniProt Q7Z6K5 192-226) (peptide)
2 | 2.5 µM | 2 | GST-aCT (chimeric protein with Arpin's CT fused to the C-terminus of glutathione S-transferase)
3 | 14.1 µM | – | full-length human Arpin (hArpin) (from UniProt Q7Z6K5 1-226) (natural protein)
